In this assay the target is human IL-15Rα (captured on the surface plasmon resonance sensor chip) (human) (UniProt Q13261). As to the kind of experiment: SPR. In general terms: Surface plasmon resonance follows binding to a sensor surface in real time, without labels.
UniProt Q13261, sequence (Q13261 31-267): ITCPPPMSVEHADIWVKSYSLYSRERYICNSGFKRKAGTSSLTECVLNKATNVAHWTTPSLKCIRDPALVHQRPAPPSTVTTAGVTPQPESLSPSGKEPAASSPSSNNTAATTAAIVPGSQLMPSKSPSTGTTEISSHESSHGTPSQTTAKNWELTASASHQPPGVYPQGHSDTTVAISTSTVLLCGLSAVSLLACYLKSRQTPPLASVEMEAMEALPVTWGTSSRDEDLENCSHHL

As to “NKTR-255, polyethylene glycol-conjugate of recombinant human interleukin-15 (from UniProt P40933 49-162) (ligand)”, the Kd (commonly the constant that tells how readily two partners part at equilibrium) came to 0.085 nM; the off-rate constant (koff) (in general, a measure of how fast the partners let go of each other) is 6.7e-05 s⁻¹; the association rate constant (kon) (as a rule, a measure of how fast the partners come together) was 780000 M⁻¹ s⁻¹.

Substance “recombinant human interleukin-15 (rhIL-15) (from UniProt P40933 49-162) (ligand)” registered a Kd of 0.019 nM, an off-rate constant (koff) of 9.3e-05 s⁻¹ and an on-rate constant (kon) of 5.1e+06 M⁻¹ s⁻¹.

The record behind these values is PMC8130760.
